T1: recombinant human NME7AB (human, UniProt Q9Y5B8 92-376)
T1 construct: also called NME-AB; NME7 (in several passages)
T1 sequence: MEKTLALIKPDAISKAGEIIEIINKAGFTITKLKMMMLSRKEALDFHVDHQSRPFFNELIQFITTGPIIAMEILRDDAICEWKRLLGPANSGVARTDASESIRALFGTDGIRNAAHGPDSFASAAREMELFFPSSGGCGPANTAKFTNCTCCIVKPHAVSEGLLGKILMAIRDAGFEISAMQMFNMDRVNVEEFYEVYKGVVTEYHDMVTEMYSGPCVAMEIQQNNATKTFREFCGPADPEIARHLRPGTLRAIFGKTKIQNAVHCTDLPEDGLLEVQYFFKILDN


Experiments:
recombinant human NME7AB [1] = target: T1, recombinant human NME7AB; test: ELISA, plate coated with recombinant NME7AB (FIG. 24)
Procedure: The surface of the multi-well plate was coated with a recombinant $NME7AB$. Anti-$NME7AB$ antibodies were separately added to wells. Standard washes were performed and visualized by adding an HRP-conjugated secondary antibody. […] 7 of the 10 new anti-NME7 antibodies bound strongly to NME7$AB$. […] The surface of the multi-well plate was coated with a recombinant NME1-S120G dimers, which are also known to bind to the MUC1* extra cellular domain. Anti-NME7$AB$ antibodies were separately added to wells. Standard washes were performed and visualized by adding an HRP-conjugated secondary antibody.

recombinant human NME7AB [2] = target: T1, recombinant human NME7AB; test: ELISA sandwich assay, HRP signal (FIG. 1A-1B)
Procedure: Example 3—ELISA Assay Showing NME7$AB$ Simultaneously Binds to Two MUC1* Extra Cellular Domain Peptides Results are shown in FIG. 1. The PSMGFR peptide bearing a C-terminal Cysteine (PSMGFR-Cys) was covalently coupled to BSA using Imject Maleimide activated BSA kit (Thermo Fisher). PSMGFR-Cys coupled BSA was diluted to 10 ug/mL in 0.1M carbonate/bicarbonate buffer pH 9.6 and 50 uL was added to each well of a 96 well plate. After overnight incubation at 4° C., the plate was washed twice with PBS-T and a 3% BSA solution was added to block remaining binding site on the well. After 1 h at RT the plate was washed twice with PBS-T and NME7, diluted in PBS-T+1% BSA, was added at different concentrations. After 1h at RT the plate was washed 3× with PBS-T and anti-NM23-H7 (B-9). Santa Cruz. […] After 1 h at RT the plate was washed 3× with PBS-T and binding of NME7 was measured at 415 nm using ABTS solution (Pierce).
After 1 h at RT the plate was washed 3× with PBS-T and His-Tagged PSMGFR peptide (PSMGFR-His) or biotinylated PSMGFR peptide (PSMGFR-biotin), diluted in PBS-T+1% BSA, was added at different concentration. […] After 1 h at RT the plate was washed 3× with PBS-T and binding of PSMGFR peptide to NME7 already bound to another PSMGFR peptide (which could not signal by anti-His antibody or by streptavidin) coupled BSA was measured at 415 nm using a ABTS solution (Pierce).

Binder	binding result (recombinant human NME7AB [1])	binding result (recombinant human NME7AB [2])
anti-NME7 monoclonal antibody 8F9A5A1 (antibody, V domains shown, Mouse monoclonal) VH: IQLVQSGPELKKPGETVKISCKASGYTFTNYGMNWVKQAPGKGLKWMGWINTYTGEPTYVDDFKGRFAFSLETSATTAYLQINNLKNEDTSTYFCARLRGIRPGPLAYWGQGTLVTVSA VL: EILLTQSPAIIAASPGEKVTITCSASSSVSYMNWYQQKPGSSPKIWIYGISNLASGVPARFSGSGSGTSFSFTINSMEAEDVATYYCQQRSSYPPTFGGGTKLEIKR	binds	–
GTINVHDVETQFNQYKTEAASRYNLTISDVSVSDVPFPFSAQSGA (For the other ELISAs only surface-immobilized peptide is stated; also called MUC1* peptide; FLR) [PSMGFR peptide (MUC1* extra cellular domain peptide)]	–	binds

From patent US12415868 (MINERVA BIOTECHNOLOGIES, dated 2025)
